Laboratory results reported in the DeepSol protein solubility set.

experiment: soluble on expression in E. coli; label from the status in PepcDB or PDB records

Row | Sequence | soluble on expression in E. coli
1 | MGSDKIHHHHHHMKYTIEEIRQMQEGQTFDCKSILIEPKHLATIIVAMANADGGMIAVGISDKTRRIEGVNQDKEHLNDILRTPLDFCVPSVSVTTDYVPCTDAEGRDNRVLLMHIPASPRLHANQADEVFWRVGDKSRKLTFDERLQLMYDKGERYYEDSTAYDATLDDIDMDAVKAYMKRIGYGKSAMEYLQENKGFVTYKGDVPQVSAACILLFGKHPQTFFPRARVRFIKYFGTEEKVGREMNVIKDVTFDGRILEQIQKTVEYLETQVKEHSYLGEDGIFKTDREYPKFVIQEMVVNSVCHRDYSIKGTEIQIKMFDDRLVFETPGKLPGIVRTDNIRHTHFSRNPKIAEFLKAYDYVKEFGEGVDRMCRELSALGVKEPQYNLVAFIMKATVCAKVLEERQGTNHFDQKRPESDQKSDQMRIILELIKSNPNISRTELSEKTGLHDSSVKRRLKTLVDEGLIQRVGPDKGGQWKVIGSL | not soluble
2 | MGSDKIHHHHHHMQKPCIATPFSSYQETVPSLLQAVGAPGLLSRQSCILIKPNLVNASPPPVTLPVAACEALVAACRRWSKARIVIAEGSGDRDLSTGEIFQRLGYERLARRYDVDLVDLNNAELVELQNPLCEVFPTFMMPRMVMDSFVISAAVLKAHSLAEVTLSMKNMIGVAPPAYYQQGGHWKKSAFHAQMHRSIFELNRYRKPDLAFIDASVGLAEYHLGGPTCEPPVDKLLAGFDPVAVDAAGSELLGIPWQQVEHIRLADGLLGRAGK | not soluble
3 | MAAPPSPGRTADQADQVCTFLFKKPGRKGAAGLRKRPACDPEHGESSSSGDEGDTVAQPPRVAPRPRGLHSWQKAAHGDRRGEEAAPESLDVVYRSTRSAKPVGPEDMGATADFEQDTEKEHHTPTILKCSQRVQEALRGREHDHIYRGIHSYLRYLKPKDTSMGNSSSGMARKGPIRAPGHLRATVRWDYQPDICKDYKETGFCGFGDSCKFLHDRSDYKLGWEIERELEEGRYCICEDENHEVGSEEEEIPFRCFICRQAFQNPVVTKCRHYFCESCALEHFRATPRCYICDQPTGGIFNPAKELMAKLQKLQAAEGKKR | soluble
4 | SLGEVPSPQELIEVADAAPNAASGVLKLYRAYREQAQRLSDLSDLLAREGHETALSSTRLPIDEVRHVFENRPAYFHAIDAAAEELHKQLSTGDDLASGLRAWLQKNHGIVVRTLPVHAMPNLRRRYDRHSMRLFLSERLSQPDQLREMAMETCLLALREEIGTELEALGLKGEEARRIARFELARYAAHALMMPYGAFLAAAQRAKYDLDVLRSRFNVSFEQAANRLVSLQRPTTAAIPFFLMEIDNAGNRFRLAGAGGFPRARFGGLCPRLNIHAAFAQPGQVLVESVEMPDGDAFLTVSRTLEGPQAGFGERVRRTAVLLGCDLGQAGETVYGPAASGAAPVAIGPSCRLCERQGCLSRAEAPLTRPLGLDEMVTGLSVFDFQ | soluble
5 | MGSDKIHHHHHHMANLYDLKKFDLNLLVIFECIYQHLSISKAAESLYITPSAVSQSLQRLRAQFNDPLFIRSGKGIAPTTTGLNLHHHLEKNLRGLEQTINIVNKSELKKNFIIYGPQLISCSNNSMLIRCLRQDSSVEIECHDILMSAENAEELLVHRKADLVITQMPVISRSVICMPLHTIRNTLICSNRHPRITDNSTYEQIMAEEFTQLISKSAGVDDIQMEIDERFMNRKISFRGSSLLTIINSIAVTDLLGIVPYELYNSYRDFLNLKEIKLEHPLPSIKLYISYNKSSLNNLVFSRFIDRLNESF | not soluble
6 | MGSDKIHHHHHHMFIDKQTVERHFSKSAHLYDGVNHVQRKMAHRLVQLLDEKRRDAKDEPRAILDIGCGTGWLTRECLKSFPQATIDAVDLSKQMLEVAEKNVSSHPNVQFIQGDIEKMVREKPSAKTYDVIVANAVFQWLDKPTETVAQLRSWLKPNGLLLFSTFGPDTFYELHDSFQLAAKQLGIIDERRGLDYLSKTEWKRTLDGLFAELTIHEEKAIESYATVEQFLHTVKKMGATYSQSSRPLSKRYYQLMKEIYEQRYRTEDSIPATYDCLYVLCQA | not soluble
7 | MGSDKIHHHHHHMEVEIVERNAFTAVGKKRTFSVENDAQKEKISQFWQEVNANGDAERINELAEFATIDGILGVCQMNGDQMDYYIAIESELTPPADMEKLTIPASKWAIFKSVGPLPNAIQKVWEYIYGEWFQTCNYTHGNAPELEVYTEGDTTAVDYYSEVWIPVVEKD | not soluble
8 | NPHLLVKYHSGFFVDGKFLCCQQSCKAAPGCTLWEAY | soluble
9 | MSLDISFQIQDAVASVIRAPLASPFRIATGQHDELENVFLKLTTRDGVSGYGEAAVASHITGETVPGTLANLQNAAAALRGQTVDDAESACRQFAAAFAGNHAGLAALEMALLDLSSRVRGIPFYRLFAPVAALEPRLAFSTDITVVIGSLDEARATAREFASRGFKAFKIKIGRDEQLDLARVLAVHEIAPDSQIILDANMGFSAGSMLAFLDRLAAKGVRPVLLEQPVPKMDWDGLSEITAALTGSETLVCADESVGSLADARRAIDSNAVSAINVKFMKSGILEGAEIARLAASRGIRLMLGAMMESALAVTASAHFAAGLACFDYLDMDTTFFLKGELAHSPYLDEHGRFDLHDAGPGIGVEPRFSEGHHHHHH | soluble
10 | MGSDKIHHHHHHMKTFHNEEIYIKTDNFSDSIFKENTMFFDIETTGFSPVKAIVYMIGCARRIKNRIVIDQYFAESVDDEAAVIEAFAGSLSGCSTIISFNGVGFDIPFLKNKYKKYKQEDPFCNVQILDIFKELSPIKPLLCLENYKQKSIEAFLGIDREDKYSGGELINVYYEYLAQKDDEKLSLLLTHNYEDVLGMTKLLSILSYKECIHGIADITGVSVNPYTAYDGSLMNELIISFENKFSVPKSVSFHDNDIYLTIGTTKSYVRAEIFEGEMRHFYSDYKNYYYLPKEDMAIHKSVAAYVDHEYREKCKAYNCYVRKTGTFIRQYSDFMKPEFRFDIKDKYSYFLLTEDFINSKQMVLSYVKHITDHLFNL | not soluble
11 | MFRMPIVTMERVDSFSAAHRLHSEKLSDAENKETFGKCNNSNGHGHNYVWKVKLRGEVDPTSGMVYDLAKLKKEMSLVLDTVDHRNLDKDVEFFKTTVSTSENVAIYMFEKLKSVMSNPSVLYKVTIEETPKNIFTYKGC | not soluble
12 | MIKRILKIWFIIGMYELSKYLTNELIIYLQSEDDIDTAPKDFAILDDQIDLNRSFRRQIENDIAKAFEDAFNSSEKEDNLEHHHHHH | not soluble
13 | MGSDKIHHHHHHGGFTGAIADFPTAIHRAVKGQMQTTTDYLNGEQTEYDESVFTGEYHYYYEKLSDDDKLIYRQIYAMMQKRMDGISLNTTDTDNVSRIQQFVLLDNPQFFYIEKSQYTVRNSIIFSPVYNMSESDIDNAISTISGYVSACMAGIDEGASDYDKAVHFYEYVIEHAEYEENSPHNQDMYSAVLGRTVCQGYAMMFKYLCDRAGISSLIVTGTTSDANHAWNMVYLDGAWCAVDCTYGDGDYLGKGISYSWFGVPLDVVKLTRTLDNEDMLPQEASVEDDYYYRNGLYFTSYDLKVLQGMTTSSNYITFKFSDRETYDTACHSLFDKGDYKYLIPTARGGTITYMQEPNSLAVFIHIELGS | not soluble
14 | MFPQTTMDHILHPTPREGYYVVELNRSVWVVPNYYINLTPIGTGAYGTVCAAECTRSGTRVAIKKFNRPFQSIIHARRTYRELRLLRCMCHENIIDLLDVFTPNENVNDIEDVYFVSMLMGADLSNILKIQRLNDDHIQFLVYQILRGLKYIHSADIIHRDLKPSNIAVNEDCELKILDFGLARQTDSEMTGYVATRWYRAPEIMLNWMHYTQTVDVWSVGCILAELITGKTLFPGSDHIDQLTRIMSVTGTPDEEFLKKISSEEARNYIRNLPKMTRRDFKRLFAQATPQAIDLLEKMLHLDPDRRPTAKEAMEHEYLAAYHDETDEPIAEEMDLNDDVRADTIDEWKKIIWEEISDFQKNVAFADEEEDEEKMES | not soluble
15 | MDQTVLDSAFNSPVDSGIAGTTTGSGSTTHFGVGTNFKVSVRSSSRSTDGTDSTDGANSDNVTGSTGSTPAHHSITNLNMALSQHSIDSATAASSTNPFPHFNQADLLNFHQNSLLPHHMFSQFGRYPQFEQKPDVGVLQQQMQMREAKPYKCTQCVKAFANSSYLSQHMRIHLGIKPFGPCNYCGKKFTQLSHLQQHIRTHTGEKPYKCKFTGCDKAFSQLSNLQSHSRCHQTDKPFKCNSCYKCFTDEQSLLDHIPKHKESKHLKIHICPFCGKSYTQQTYLQKHMTKHADRSKASNFGNDVVPADPFDPSLLSWNPMQGMGDNAHDSSSFNISSLTDQFAANTMIGSQSTNYNPAFQNSAFSQLFNIRNNRYLSEYPTSTKNGERAPGFNMITPLENIQRYNGSSSSATAVVTATGSAVVSSTPSSTSSSSAGSSSSQGGVFNPQSLINNMKNHSY | not soluble
16 | MAYEISKKVLHIVGKTNATYKLIEEGDKILLGLSGGKDSIMLACILARMQKHAPFKFDFKAVTVHYGLGEDLKWLSDLCQEQGIEHEIIYTQIAATINEKRREKSSFCSFCSRLRRGTLYSKALEEGYNKVAIAHHLDDAVESFFMNFTYNGSLRSMPPIYRAENGLLVIRPLIKVREASSIHFVTSQNIPVAPDCNCPAKQPTSDKPPIARLATKNFLKEMQNLHPRFFDSLENAFNNVQANSFSDAKYLDALEHHHHHH | soluble
17 | MGHHHHHHSHANSIDLIGYVHQPVQFDSTLDGKFWAGTVISHEPSSDSKSESDSSSNFWIPVLFEGDLAHTANSYLKKNDRVHITGQILGDVIQSGANSDQAHVQLFKSFHGSFSHQVMVRD | not soluble
18 | AKRYWNANLDTYHPKNVSQNRALLTIRVFVHNFNPEEGKGLTFVGSPGVGKTHLAVATLKAIYEKKGIRGYFFDTKDLIFRLKHLMDEGKDTKFLKTVLNSPVLVLDDLGSERLSDWQRELISYIITYRYNNLKSTIITTNYSLQREEESSVRISADLASRLGENVVSKIYEMNELLVIKGSDLR | soluble
19 | MTSGLERLSNLLSKKDSVFVSDLLREAKVNELDETLSTTRLNHLIDKGYERITLQLDLGGESPGYLEKDKHYREADAALLNVIYPTNLSKINTRRKEQV | not soluble
20 | MKYKRVLLKLSGEFLTRNGFGIEPEATQALAREIKAAYDTGVQLAIVIGAGNLWRGARQGVGMDRATADYIGMLATIMNALALQDALESLGVPTRVQTALTITQVAEPYIRRRALRHLEKERIVIFGGGTGNPFFSTDTAAALRALEVGAEVVLMAKNKVDGVYSDDPRKNPEAVRFDELTYLEVLNRGLQVMDTTAITLCMEAGLPIVVFDIFKPGALVGIIQGEKVGTLIH | soluble
21 | MSLTYDLIITDSHVMTPNGMVEKNIVIDSGKIKLITNDTPTCDKKIKGSGLVSIPGVIDPHVHYGVYSPIDQAAKTESHAAAIGGVTTMIRMFRLEGSYKDSLQKHLLASQNSHYIDYTIHASIFDTSQIDEMKYCTENQILSFKIYMNLGGDVGHVYMEMNPGEEKLISSHVNVTNELVEKIVKRAGELKCPVLVHAEDYQECACAMKTEQEKKHDGLNSWSESRSPDFEAKSIKTICEYGRKYDCVIYFVHIGSKLALEQIQIEKNNGTKIFVETCPHYLTLSHETQDGYLAKVMPPIRTKNDVEYVWESLQKNHINTIGTDHVANQLKLKLGGDDVWGALAGFPGIGTSLPILLSEGINKNRITLDQLVNLTSANTSKIFGLSDKGNISTGYEGHHHHHH | soluble
22 | MGSDKIHHHHHHMDIEDLRTFVAVADAGGVSAAARRLGISKSIVSRRLFRIEAELGVQLLARTTRGAALTEAGITFRDHAARASAEIDTARETILPAGELHGRLRIAMPLTFGPTHFAPVLAEMARQHPQLHIHTSYSDRFVDLIAEGFDCAIRGAYLQDSNLIAKRVGPIHGKLVASPAYIKAHGSPEMVEQLVNHQALMQGTEAWQFMDGDRIVTVQPQGKFKADSATALAAAAAAGLGIAWLPDCITHAYLASGALVPIMTRYPVPPGAVYVVRPPSQHPARKVRVLTEMLTEYFKRTPELWGVDG | not soluble
